Data published in the supplement of paper PMC10567573.

B1: MLH1 (parent)
chain: YNIATRRKALKNPSEEYGKILEVV
B2: PBXIP1 (parent)
chain: EKQKQPRWREGTKDSHDPLPSWAE

Variants of: B1
Experiment: protein stability index of a GFP-peptide fusion (GPS, HEK-293T) (PSI 1-6); higher = more stable
Details: c terminus: a fixed tail appended
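Note: lentivirally expressed fusions sorted by FACS into six bins by GFP to DsRed ratio, PSI derived from sequencing read proportions per bin multiplied by bin number.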

| Variant | protein stability index |
| --- | --- |
| I3F | 2.85 |
| I3D | 3.19 |
| I3R | 2.71 |
| I3E | 2.74 |
| I3G | 2.97 |
| I3K | 2.98 |
| I3P | 3.14 |
| I3C | 2.69 |
| I3Q | 3.41 |
| I3M | 3.08 |
| I3A | 3.11 |
| I3N | 3.29 |
| I3H | 2.69 |
| I3S | 3 |
| Y1S | 3.29 |
| Y1K | 3.52 |
| Y1W | 2.86 |
| Y1M | 2.76 |
| Y1E | 3.55 |
| Y1D | 3.69 |
| Y1V | 2.76 |
| Y1I | 2.48 |

| Variant | protein stability index |
| --- | --- |
| Y1Q | 3.6 |
| Y1A | 3.18 |
| Y1N | 3.35 |
| Y1F | 2.43 |
| R7K | 2.48 |
| R7H | 2.69 |
| R7T | 2.95 |
| R7P | 3.14 |
| R7G | 2.78 |
| R7V | 2.39 |
| R7C | 2.37 |
| R7E | 3.66 |
| R7D | 2.84 |
| R7A | 2.5 |
| R6L | 1.79 |
| R6P | 3.15 |
| R6W | 1.96 |
| R6C | 1.89 |
| R6S | 2.7 |
| R6N | 2.85 |
| R6G | 2.76 |
| R6K | 2.99 |

| Variant | protein stability index |
| --- | --- |
| R6T | 2.32 |
| R6V | 2.1 |
| R6Q | 2.82 |
| R6D | 3.69 |
| R6Y | 1.76 |
| T5F | 2.27 |
| T5D | 3.06 |
| T5N | 2.57 |
| T5V | 3.09 |
| T5E | 3.54 |
| T5W | 1.83 |
| T5L | 2.85 |
| T5Y | 2 |
| T5S | 3.03 |
| T5C | 2.17 |
| T5A | 2.54 |
| T5P | 2.82 |
| T5I | 2.17 |
| T5G | 2.82 |
| N2L | 1.9 |
| N2F | 1.71 |
| N2M | 1.85 |

| Variant | protein stability index |
| --- | --- |
| N2Q | 2.51 |
| N2E | 3.12 |
| N2Y | 2.43 |
| N2R | 2.5 |
| N2C | 2.18 |
| N2V | 1.87 |
| N2D | 3.14 |
| N2H | 2.07 |
| N2G | 2.7 |
| N2T | 2.45 |
| A4E | 3 |
| A4Y | 2.12 |
| A4C | 3.31 |
| A4W | 1.83 |
| A4H | 2.89 |
| A4D | 3.15 |
| A4N | 3.27 |
| A4R | 2.97 |
| A4Q | 2.57 |
| A4I | 2.54 |
| A4V | 2.49 |

Variants of: B2
Experiment: as above
Details: c terminus: a fixed tail appended

| Variant | protein stability index |
| --- | --- |
| A23K | 4.51 |
| A23Y | 4.24 |
| A23E | 2.39 |
| A23M | 3.36 |
| A23P | 3.89 |
| A23F | 3.56 |
| A23L | 4.81 |
| A23H | 4.04 |
| A23W | 2.76 |
| A23S | 2.01 |
| A23N | 4.99 |
| A23I | 2.61 |
| A23Q | 2.26 |
| A23T | 2.08 |
| L19K | 1.68 |
| L19G | 2.56 |
| L19H | 2.63 |
| L19S | 1.77 |
| L19T | 2.27 |
| L19R | 2.86 |
| L19P | 1.73 |
| L19E | 3.44 |
| L19N | 2.49 |
| E24W | 1.95 |
| E24I | 3.06 |
| E24T | 2.39 |
| E24Y | 3.09 |

| Variant | protein stability index |
| --- | --- |
| E24N | 3.02 |
| E24A | 2.62 |
| E24S | 2.34 |
| E24F | 3.11 |
| E24D | 1.9 |
| E24P | 4.12 |
| E24H | 3.29 |
| E24L | 3.02 |
| E24K | 2.89 |
| E24M | 3.16 |
| E24C | 2.66 |
| E24R | 3.34 |
| S21V | 2.68 |
| S21G | 2.93 |
| S21L | 2 |
| S21W | 4.58 |
| S21Y | 3.67 |
| S21I | 2.56 |
| S21T | 2.62 |
| S21F | 2.54 |
| S21E | 3.19 |
| S21K | 1.75 |
| S21H | 3.27 |
| S21N | 2.01 |
| S21D | 4.6 |
| S21Q | 3.03 |
| S21M | 2.6 |

| Variant | protein stability index |
| --- | --- |
| W22H | 5.32 |
| W22I | 5.01 |
| W22Q | 5.57 |
| W22A | 5.8 |
| W22E | 5.99 |
| W22T | 5.07 |
| W22R | 5.4 |
| W22N | 5.48 |
| W22S | 4.78 |
| W22Y | 4.85 |
| W22L | 3.24 |
| W22D | 5.82 |
| W22P | 5.49 |
| W22K | 5.42 |
| P20Y | 1.75 |
| P20N | 1.88 |
| P20A | 2.13 |
| P20K | 2.66 |
| P20R | 2 |
| P20D | 1.79 |
| P20Q | 2.45 |
| P20F | 1.52 |
| P20W | 1.44 |
| P20I | 2.48 |
| P20M | 1.31 |
| P20H | 2.22 |
